Laboratory results reported in US20210054072A1 (ALLAKOS, published 2021).

B1: 5215-9 (antibody, V domains shown)
VH: EVQLQQSGAELVKSGASVKLSCTASGFNIKDTYMHWVKQRPEKGLEWIGWIDPADGHTKYDPKFQGKATITADTSSNTAYLHLSSLTSEDAAVYYCPRGGSSPYFDYWGQGTTLTVSS
VL: DIVLTQSPASLTISLGQRATISCRASQSVSTSTYSYIHWYQQKPGQPPKLLIKYASNLASGVPARFSGSGSGTDFSLSIHPMEEEDTATYYCQHSWKIPFTFGSGTKLEIK
notes: anti-Siglec-7 monoclonal antibody of the panel
B2: monoclonal antibody 3F1 (antibody, V domains shown)
VH: EFQLQQSGPEMVKPGASVKMSCKASGDSFTDYKINWVKQNNGKSLEWIGVINPDSGTTSYNQIFEGKATLTVDQSSSTAYMQVNRLTSEDSAVYYCTTWDDYSFYAMDYWGQGTSVTVSS
VL: DVLMTQTPLSLPVSLGDQASISCRSSQNIVHSNGNTYLEWFLQKPGQSPKLLIYKVSNRFSGVPDRFSGSGSGTDFTLKISRVEAEDLGVYYCFQGSHIPWTFGGGTKLEIK
B3: 5215-13 (antibody, V domains shown)
VH: EVQLQQSGAELVKPGASVKLSCTVSGFNFKDTYIHWVKQRPEQGLEWIGRIDPANGNTKYASKFQDKATITADTSSNTVYMQLSSLTSEDTAVYYCTRGWDGYYFDCWGQGTTLTVSS
VL: DIVLTQSPASLVVSLGLRATISCRASQSVSTSSHSYLHWYQQKPGQPPKLLIKYASNLASGVPARFSGSGSGADFTLNIHPVEEEDTATYYCQHSWEIPYTFGGGTKLEIK
notes: as for B1
B4: monoclonal antibody 16H11 (antibody, V domains shown)
VH: QVQLHQSGAELVKPGASVKISCKGSGYDFSNFWMNWVKQRPGKGLEWIGQIYPGDGEIKYNGKFKGKATLTADESSSTAYIHLSSLTSEDSAVYFCARDDYLRAMDYWGQGTSVTVSS
VL: DIQMTQSPASLSASVGETVTITCRASGNIHNYLAWFQQKQGKSPHFLVYSAKALADGVPSRFSGSGSGTQYSLKINSLQPEDFGTYYCQHFWSSPYTFGGGTKLEIK
B5: monoclonal antibody 8A2 (antibody, V domains shown)
VH: QVQLKESGPGLVAPSQSLSITCTVSGFSLTTYGVDWVRQFPGKGLEWLGVIWGGGNTNYNSALMSRLSISKDTSKSQVFLKMNSLQTDDTAMYYCAKHKGTSHAMEYWGQGTSVTVSS
VL: QIVLTQSPAIMSASPGEKVTMTCSASSRVIFMYWYQQKPGSSPRLLIYDTSNLASGVPVRFSGGGSGTSYSLTISRMEAEDAATYYCQQWSSYPPTFGAGTKLELK
B6: 5215-2 (antibody, V domains shown)
VH: DVQLQESGPGLVKPSQSLSLTCTVTGYSITSDYVWTWIRQFPGNKLEWMGYITYSDSTNYNPSLKSRLSITRDTSKNQFFLQLSSVTTEDTATYFCARSLTGNYFDYWGQGTTLTVSS
VL: VIVLTQSPASLEVSLGQRATISCRASQTVRISSYSYMNWYQQKPGQPPKLLIKYASNLESGVPARFSGSGSGTDFTLNIHPVEEEDTATYYCQHSWKIPTFGGGTKLEIK
notes: as for B1

Tests used:
Siglec-7-ECD [1] = biological target: T1, Siglec-7-ECD (human, UniProt Q9Y286 19-353); experiment: bio-layer interferometry (ForteBio), 25 C, antibody captured on the sensor, Siglec-7-ECD as analyte 50 to 1.56 nM, 1:1 global fit
T1 construct: also called p75; AIRM
Experimental: Antibody binding analysis was carried out by bio-layer interferometry (ForteBio). […] Antibodies were captured on anti-mouse kinetic sensors at 0.5 ug/mL; Siglec-7-ECD was used as analyte and diluted in assay buffer from 50 nM to 1.56 nM with 2× dilutions. Two-minute associations were conducted, followed by 10-minute dissociations. Results were determined relative to a control empty reference AHC sensor, and analyzed using ForteBio analysis software with 1:1 global fit parameters.

Siglec-7-ECD-Fc = biological target: T2, Siglec-7-ECD-Fc (human, UniProt Q9Y286 19-353); experiment: ligand blocking assay, flow cytometry: antibody (40 nM to 40 pM) mixed with 10 nM Siglec-7-ECD-Fc; blocked: binding of Siglec-7-ECD-Fc to its ligands on A375 melanoma cells
T2 construct: also called recombinant Siglec-7-Fc; Siglec-7-ECD-huFc; not shown: human Fc (huFc)
Experimental: Recombinant Siglec-7-Fc was added to A375 cells in the presence of anti-Siglec-7 antibodies at increasing concentrations and binding of the complex was detected on the cell surface.
Human melanoma cell line A375, which expresses high level of ligands for Siglec-7, was used to determine the blocking activity of anti-Siglec-7 antibodies in a cell based assay. Two-fold serial dilutions of anti-Siglec-7 antibodies (40 nM to 40 pM) were combined with 10 nM Siglec-7-ECD-Fc in FACS buffer (PBS/2% BSA) and incubated on ice for 30 minutes. 2.5×10e4 A375 cells per well were added to round bottom 96-well tissue culture plates in FACS buffer, plates were centrifuged at 400 g for 2 min, supernatant was removed and cells were re-suspended in 100 ul of the antibody-Siglec-7 complexes. After a 1 hour incubation on ice, cells were washed twice and incubated for 30 minutes with goat anti-human F(ab′)2 fragment conjugated to AF647 (Jackson IR labs) at 1 ug/ml in FACS buffer. After two more washes, cells were fixed in PBS/2% PFA and acquired on a Novocyte flow cytometer (ACEA biosciences). IC₅₀ values for blocking were determined based on plotting mean fluorescence in the APC channel and analysis using Prism Graphpad software.

Siglec-7-ECD [2] = biological target: T1, Siglec-7-ECD; experiment: bio-layer interferometry (ForteBio), 25 C, antibody captured on the sensor, Siglec-7-ECD as analyte 50 to 1.56 nM, 1:1 global fit; the same value stands beside the sensorgrams ('QA79 KD=706pM', four traces up to about 0.16 nm, visible dissociation to 780 s)
[3] = biological target: Siglec-7 on primary human NK cells (human, UniProt Q9Y286 19-467); experiment: cell-based or functional assay
Siglec-7 on primary human NK cells, sequence (Q9Y286 19-467 limits assumed): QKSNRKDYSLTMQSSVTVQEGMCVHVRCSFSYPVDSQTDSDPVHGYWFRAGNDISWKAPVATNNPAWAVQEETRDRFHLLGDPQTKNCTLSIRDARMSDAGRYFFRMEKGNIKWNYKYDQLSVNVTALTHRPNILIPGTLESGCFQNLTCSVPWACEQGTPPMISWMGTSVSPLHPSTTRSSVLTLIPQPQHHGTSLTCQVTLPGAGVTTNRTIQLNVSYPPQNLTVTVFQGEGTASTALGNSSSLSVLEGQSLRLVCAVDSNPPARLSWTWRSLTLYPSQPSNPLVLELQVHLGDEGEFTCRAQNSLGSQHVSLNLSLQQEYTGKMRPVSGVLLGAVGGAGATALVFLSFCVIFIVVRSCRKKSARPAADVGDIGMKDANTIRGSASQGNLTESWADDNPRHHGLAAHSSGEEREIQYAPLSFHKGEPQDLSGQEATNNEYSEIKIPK

T2 sequence (Q9Y286 19-353): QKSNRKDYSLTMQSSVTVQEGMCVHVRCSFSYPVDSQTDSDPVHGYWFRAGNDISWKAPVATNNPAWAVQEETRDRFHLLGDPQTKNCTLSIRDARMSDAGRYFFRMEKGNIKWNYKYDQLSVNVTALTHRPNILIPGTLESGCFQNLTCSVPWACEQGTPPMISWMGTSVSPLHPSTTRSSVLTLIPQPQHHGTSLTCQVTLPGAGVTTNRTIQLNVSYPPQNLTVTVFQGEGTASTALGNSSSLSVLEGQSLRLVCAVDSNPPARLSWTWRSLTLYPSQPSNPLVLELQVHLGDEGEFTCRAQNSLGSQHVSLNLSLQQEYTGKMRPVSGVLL
T1 sequence (Q9Y286 19-353 limits assumed): as the sequence (Q9Y286 19-353) above

Row | Molecule | Kd (Siglec-7-ECD [1]) [pM] | IC50 (Siglec-7-ECD-Fc) [pM] | Kd (Siglec-7-ECD [2]) [pM] | IC50 (read off the curve), internalization of Siglec-7 [3] [pM]
1 | anti-Siglec-7 antibody Z176 | 86 |  |  | 
2 | anti-Siglec-7 antibody QA79 |  | 7490 | 706 | 
3 | anti-Siglec-7 antibody S7.7 | 422 | 4260 |  | 
4 | B1 | 1 | 5330 |  | 
5 | B2 |  |  |  | ~10
6 | B3 | 990 | 1320 |  | 
7 | B4 |  |  |  | ~10
8 | B5 |  |  |  | ~10
9 | B6 | 149 | 4120 |  | 
